Results on 38 molecules are retold here after US20210388087A1 (Chugai, published 2021).

Numbering of substitutions follows the chain as printed. In names and notes the source's numbering stands.

T1: Human CD3eg linker (human)
T1 construct: single-chain construct; also called recombinant human CD3
T1 chain: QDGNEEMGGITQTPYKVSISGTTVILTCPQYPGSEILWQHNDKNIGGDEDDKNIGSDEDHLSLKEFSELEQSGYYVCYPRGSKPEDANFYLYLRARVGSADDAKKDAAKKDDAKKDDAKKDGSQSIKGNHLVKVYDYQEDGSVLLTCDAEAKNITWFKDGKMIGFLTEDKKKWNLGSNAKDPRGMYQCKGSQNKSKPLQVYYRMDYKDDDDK

B1: dBBDu183H V100iE/dBBDu072L (antibody, name in Kabat numbering, V domains shown)
VH: QVQLVESGGGLVQPGRSLRLSCAASGFTFSNAWMHWVRQAPGKGLEWVAQIKDKGNAYAAYYAPSVKGRFTISRDDSKNSIYLQMNSLKTEDTAVYYCHYVHYASASTVLPAFGEDAWGQGTTVTVSS
VL: DIVMTQSPLSLPVTPGEPASISCQASQELVHMNRNTYLHWYQQKPGQAPRLLIYKVSNRFPGVPDRFSGSGSGTDFTLKISRVEAEDVGVYYCAQGTSVPFTFGQGTKLEIK
B2: dBBDu183H Y97R/dBBDu072L (antibody, name in Kabat numbering, V domains shown)
VH: B1 VH with Y103R, E115V
VL: B1 VL
B3: dBBDu183H Y97V/dBBDu072L (antibody, name in Kabat numbering, V domains shown)
VH: B1 VH with Y103V, E115V
VL: B1 VL
B4: dBBDu183H V100iF/dBBDu072L (antibody, name in Kabat numbering, V domains shown)
VH: B1 VH with E115F
VL: B1 VL
B5: dBBDu183H Y97Q/dBBDu072L (antibody, name in Kabat numbering, V domains shown)
VH: B1 VH with Y103Q, E115V
VL: B1 VL
B6: dBBDu183H Y94R/dBBDu072L (antibody, name in Kabat numbering, V domains shown)
VH: B1 VH with Y100R, E115V
VL: B1 VL
B7: dBBDu183H V100iY/dBBDu072L (antibody, name in Kabat numbering, V domains shown)
VH: B1 VH with E115Y
VL: B1 VL
B8: dBBDu183H V100iG/dBBDu072L (antibody, name in Kabat numbering, V domains shown)
VH: B1 VH with E115G
VL: B1 VL
B9: dBBDu183H Y97N/dBBDu072L (antibody, name in Kabat numbering, V domains shown)
VH: B1 VH with Y103N, E115V
VL: B1 VL
B10: dBBDu183H Y97F/dBBDu072L (antibody, name in Kabat numbering, V domains shown)
VH: B1 VH with Y103F, E115V
VL: B1 VL
B11: dBBDu183H V100iS/dBBDu072L (antibody, name in Kabat numbering, V domains shown)
VH: B1 VH with E115S
VL: B1 VL
B12: dBBDu183H Y94V/dBBDu072L (antibody, name in Kabat numbering, V domains shown)
VH: B1 VH with Y100V, E115V
VL: B1 VL
B13: dBBDu183H V100iQ/dBBDu072L (antibody, name in Kabat numbering, V domains shown)
VH: B1 VH with E115Q
VL: B1 VL
B14: dBBDu183H V100iK/dBBDu072L (antibody, name in Kabat numbering, V domains shown)
VH: B1 VH with E115K
VL: B1 VL
B15: dBBDu183H Y97E/dBBDu072L (antibody, name in Kabat numbering, V domains shown)
VH: B1 VH with Y103E, E115V
VL: B1 VL
B16: dBBDu183H V100iH/dBBDu072L (antibody, name in Kabat numbering, V domains shown)
VH: B1 VH with E115H
VL: B1 VL
B17: dBBDu183H Y97H/dBBDu072L (antibody, name in Kabat numbering, V domains shown)
VH: B1 VH with Y103H, E115V
VL: B1 VL
B18: dBBDu183H Y94W/dBBDu072L (antibody, name in Kabat numbering, V domains shown)
VH: B1 VH with Y100W, E115V
VL: B1 VL
B19: dBBDu183H Y94S/dBBDu072L (antibody, name in Kabat numbering, V domains shown)
VH: B1 VH with Y100S, E115V
VL: B1 VL
B20: dBBDu183H Y94N/dBBDu072L (antibody, name in Kabat numbering, V domains shown)
VH: B1 VH with Y100N, E115V
VL: B1 VL
B21: dBBDu183H Y94H/dBBDu072L (antibody, name in Kabat numbering, V domains shown)
VH: B1 VH with Y100H, E115V
VL: B1 VL
B22: dBBDu183H V100iW/dBBDu072L (antibody, name in Kabat numbering, V domains shown)
VH: B1 VH with E115W
VL: B1 VL
B23: dBBDu183H Y97W/dBBDu072L (antibody, name in Kabat numbering, V domains shown)
VH: B1 VH with Y103W, E115V
VL: B1 VL
B24: dBBDu183H Y94K/dBBDu072L (antibody, name in Kabat numbering, V domains shown)
VH: B1 VH with Y100K, E115V
VL: B1 VL
B25: dBBDu183H V100iN/dBBDu072L (antibody, name in Kabat numbering, V domains shown)
VH: B1 VH with E115N
VL: B1 VL
B26: dBBDu183H Y94F/dBBDu072L (antibody, name in Kabat numbering, V domains shown)
VH: B1 VH with Y100F, E115V
VL: B1 VL
B27: dBBDu183H Y94Q/dBBDu072L (antibody, name in Kabat numbering, V domains shown)
VH: B1 VH with Y100Q, E115V
VL: B1 VL
B28: dBBDu183H Y97S/dBBDu072L (antibody, name in Kabat numbering, V domains shown)
VH: B1 VH with Y103S, E115V
VL: B1 VL
B29: dBBDu183H V100iT/dBBDu072L (antibody, name in Kabat numbering, V domains shown)
VH: B1 VH with E115T
VL: B1 VL
B30: dBBDu183H Y97G/dBBDu072L (antibody, name in Kabat numbering, V domains shown)
VH: B1 VH with Y103G, E115V
VL: B1 VL
B31: dBBDu183H Y94G/dBBDu072L (antibody, name in Kabat numbering, V domains shown)
VH: B1 VH with Y100G, E115V
VL: B1 VL
B32: dBBDu183H Y94E/dBBDu072L (antibody, name in Kabat numbering, V domains shown)
VH: B1 VH with Y100E, E115V
VL: B1 VL
B33: dBBDu183H V100iR/dBBDu072L (antibody, name in Kabat numbering, V domains shown)
VH: B1 VH with E115R
VL: B1 VL
B34: dBBDu183H Y97D/dBBDu072L (antibody, name in Kabat numbering, V domains shown)
VH: B1 VH with Y103D, E115V
VL: B1 VL
B35: dBBDu183H Y94D/dBBDu072L (antibody, name in Kabat numbering, V domains shown)
VH: B1 VH with Y100D, E115V
VL: B1 VL
B36: dBBDu183H Y97K/dBBDu072L (antibody, name in Kabat numbering, V domains shown)
VH: B1 VH with Y103K, E115V
VL: B1 VL
B37: dBBDu183H Y97T/dBBDu072L (antibody, name in Kabat numbering, V domains shown)
VH: B1 VH with Y103T, E115V
VL: B1 VL
B38: dBBDu183H Y94T/dBBDu072L (antibody, name in Kabat numbering, V domains shown)
VH: B1 VH with Y100T, E115V
VL: B1 VL

In the test the target is T1, Human CD3eg linker. The test can be described thus: SPR, vs unmutated H183/L072. (In general: In SPR one partner is held on a chip, and binding of the other changes the refractive index at the surface.)
As to B1, the “fold change of affinity” value is 1.4 fold.
The value for B2 was 0 fold; that for B3 was 0 fold.
Then B4, with 3.2 fold; and B5, with 0 fold.
The value for B6 was 0.3 fold; that for B7 was 3 fold; that for B8 was 1.8 fold.
Turning to B9, the “fold change of affinity” value came to 0 fold.
B10: the “fold change of affinity” value amounted to 0 fold.
Then B11, with 1.9 fold.
Then B12, with 2.6 fold; and B13, with 3.6 fold.
Then B14, with 2.4 fold.
Take B15: the “fold change of affinity” value was found to be 0 fold.
Then B16, with 2.2 fold; and B17, with 0 fold; and B18, with 0.4 fold.
Then B19, with 0 fold.
Then B20, with 0 fold; and B21, with 0.5 fold; and B22, with 4.9 fold.
In the case of B23, the “fold change of affinity” value was found to be 0.2 fold.
As for B24, the “fold change of affinity” value amounted to 0 fold.
As to B25, the “fold change of affinity” value turned out to be 5 fold.
As for B26, the “fold change of affinity” value is 0.4 fold.
The value for B27 was 0.4 fold.
The value for B28 was 0 fold.
Consider B29, for which the “fold change of affinity” value was found to be 1 fold.
Turning to B30, the “fold change of affinity” value came to 0 fold.
For the molecule B31, the “fold change of affinity” value stood at 1.1 fold.
For B32, the “fold change of affinity” value was 0 fold.
Turning to B33, the “fold change of affinity” value was determined as 4 fold.
Take B34: the “fold change of affinity” value came to 0 fold.
With B35, the “fold change of affinity” value was found to be 0 fold.
The value for B36 was 0 fold.
With B37, the “fold change of affinity” value amounted to 0 fold.
Then B38, with 0.3 fold.
